This data set in a line: yeast display, Sf9 membrane polyspecificity reagent, FACS + sequencing; frameworks hold sequencing errors. The method, boiled down:
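A nanobody's polyreactivity label depends on the gate it was sorted from. Yeast display cells were stained with 10% biotinylated, detergent-solubilized Sf9 membrane reagent for 1 hour at 4 °C, enriched on streptavidin microbeads and sorted by FACS. The low and high (top ~1%) gates were set on anti-HA fluorescence for expression and streptavidin fluorescence for reagent binding.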
Take “QVQLVESGGGLVQAGGSLRLSCAASGRNLEYYAMGWYRQAPGQERELVATITSRGDTTHYADSVKGRFTISRDNAKNTVYLQMNSLKPEDTAVYYCAAAYVEYTPYRWYGDDYWGQGTQVTVSS”: the “polyreactivity (PSR sort gate)” value is recorded as “low polyreactivity”.

As for “QVQLVESGGGLVQAGGSLRLSSAASGSTFRYYPMGWYRQAPGKERELLARISWRGGSTYYADSVKGRFTISRDNAKNTVYLQMNSLKPEDTAVYYCAAVRWVRYRTSAYEYWGQGTQVTVSS”, the “polyreactivity (PSR sort gate)” value is given as “high polyreactivity”.

Take “QVQLVESGGGLVQAGGSLRLNCAASGITIRRYAMGCYRQAPGNERELVAAITTGGGGTYYADSVKGRFTISRDNAMNTVYLQMNSLKPEDTAVYYCAATYWRTYPSYYWGQGTQVTVSS”: the “polyreactivity (PSR sort gate)” value is “high polyreactivity”.

With “QVQLVESGGGLVQAGGSLRLSCAASGSNFTWYAMGWYRQAPGKERELVADIDWSGGSTYYADSVKGRFTISRDNAKNTVYLQMNSLKPEDTAVYYCNAVFLFYEYWGQGTQVTVSS”, the “polyreactivity (PSR sort gate)” value is given as “low polyreactivity”.

Take “QVQLVESGGGLVQAGGSLRLSCAASGINFDDYVMGWYRQAPGKERELFAAISSSGGSTYYADSVKGRFTISRDNAKNTVYLQMNSLKPEDTAVYYCAADYGSYGVVRAVSIEYEYWGQGTKVTVSS”: the “polyreactivity (PSR sort gate)” value is “low polyreactivity”.

As to “QVQLVESGGGLVQAGGSLRLTCAASGRTLRLYPMGWYRQAPGKERELVAAISRSGSSTYADSVKGRFTISRDNAKNTVYLQMYSLKPEDTAVYYCNAYQPRYGYWGQGTQVTVSS”, the “polyreactivity (PSR sort gate)” value is “high polyreactivity”.

“QVQLVESGGGLVQAGGSLRLSCAASGSIFWYNAMGWSRPAPGKERELVAAITWSGGSTYYADSVKGRFTISRDNAKNTVYLQMNSLKPEDTAVYYCATVPHYYYDYDYWGQGTQVTVSS”: the “polyreactivity (PSR sort gate)” value is given as “low polyreactivity”.

On to “QVQLVESGGGLVQAGGSLRLSCASSGSIFYNNAMGWYRQAPGKERELVAAIRSTGTRTYYSDSVKGRFTISRDTAKNTVYLQMNSLKPEDTAVYYCAVGDYGLWSYDYWGQGTQVTVSA”, for which the “polyreactivity (PSR sort gate)” value is recorded as “low polyreactivity”.

In the case of “QVQLVESGGGLVQAGGSLRLSCAASGITFYGYAMGWYRQAPGKERELVAVITSSGSSTYYADSVKGRFTISRDNAKNTVYLQMNSLKPEDTAVYDCNARPGRRSLRSRTYDYWGQGTQVTVSS”, the “polyreactivity (PSR sort gate)” value is listed as “high polyreactivity”.

In the case of “QVQLVESGGGLVQAGGSLRLSSPASGSIFITYAMGWYRQAPGKESELVAAIRDSGDRTYYADSVKGRFTISRDNAKKTVYFQMNSLKPEDTAVYYCNARWQEPLKYDYWGQGTQVTVSS”, the “polyreactivity (PSR sort gate)” value is recorded as “low polyreactivity”.

Turning to “QVQLVESGGGLVQAGGSLRLSCAASGSTFTWYAMGWYRQAPGKERELVADISYGGGSTYYADSVKGRFTISRDNAKNTVYLPMNSLKPEDTAVYYCAAESIPYYRYDYWGQGTQVTVSS”, the “polyreactivity (PSR sort gate)” value is recorded as “low polyreactivity”.

For the sequence “QVQLVESGGGLVQAGGSLRLSCAASGFTFNTNAMGWYRQAPGKETELVAAITWTGGRTYYADSVKGRFTISRDNAKNTVHLQMNSLKPEDTAVYYCAAESFGYSIDITDHEYWGQGTQVTVSS”, the “polyreactivity (PSR sort gate)” value is “high polyreactivity”.

Take “QVQLVESGGGLVQAGGSLRLSCAASGITFDEYAMGWYRQAPGKERELVASISAGSTYYADSVKGRFTISRDNAKNTVYLQMNSLKPEDTAVYYCAVVVDYDAYRYWGYDYWGQGTQVTVSS”: the “polyreactivity (PSR sort gate)” value is “high polyreactivity”.

Regarding “QVQLVESGGGLVQAGGSLRLSCAASGSTFWKYVMGWYRQAPGKERELVAAIDTGASTNYADSVKGRFTISRDNAKYTVYLQMNSLKPEDTAVYFCNAELWYGPDELTGDYWGQGTQVTVSS”, the “polyreactivity (PSR sort gate)” value is listed as “low polyreactivity”.

Take “QVQLVDSGGGLVQAGGTLRLSCAASGRTFSSYAMGWYIQAPGKERELVSAISWSGGITYYADSVKVRFTISRDNAKNTVYLQMNSLKPEDTAVYYCAVALTRRKSYEYSGGFWGQGTQVTVSS”: the “polyreactivity (PSR sort gate)” value is “high polyreactivity”.

For “QVQLVESGGGLVQAGGSLRLSCAASGGILHSYAMGWYRQAPGKERELVAAISGSGGSTYYADSVKGRFTISRDNAKNTVYLQMNSLKPEDTAVYYCNAVHHYPEHIGGGYWGQGTQVTVSS”, the “polyreactivity (PSR sort gate)” value is recorded as “low polyreactivity”.

For the sequence “QVQLVESGVGLVQAGGSLRLSCAASGLIFGRNVMGWYRQAPGKERVLVAAISWSGGRTYYADSVKGRFTISRDNAKNTGYLQMNRLKPEDTAVDYCATDRSTRTYRSPYDYWGQGTQVTVSS”, the “polyreactivity (PSR sort gate)” value is recorded as “high polyreactivity”.

For the sequence “QVQLVESGGGLVQAGGSLRLSCAGSGRIFDLYTMGWYRQAPGKERELVAAIRWSDGSTYYADSVKGRFTISRDNAKNTVYLQINSLKPEDTAVYYCAADTRTSYYNDDYDYWGQGTQVTVSS”, the “polyreactivity (PSR sort gate)” value was “low polyreactivity”.

Consider “QVQLVESGGGLVQAGGSLRLSCAASGFTFHGYAMGWYRQAPGKERELVAAISSSGGRTYYADSVKGRFTISRDNAKNTVYLQMNSLKPEDPEVYYCAAKARGIYVPDGGYWGQGTQVTVSS”, for which the “polyreactivity (PSR sort gate)” value is given as “high polyreactivity”.

In the case of “QVQLVESGGGLVQAGGSLRLSCAASGITLYDNAMGWYRQAPGKERELVAAINVNDVSTYYADSVKGRFTISRDNAKNTVYLQKNSLKPEDTAVYYCAADSLYYGIGYWVVRYDYWGQGTQVTVSS”, the “polyreactivity (PSR sort gate)” value was “low polyreactivity”.

Consider “QDQLVESGGGLVQAGGRLRLSCAASGYIFAYNAMGRDRQAPGKERELVAAISYSGGRTYYAYSVKGRFTISRYIAKNTVYLQMKSLKPEVTAVYYCAAPFRVGAGPATYDYWGQGTQVTVSS”, for which the “polyreactivity (PSR sort gate)” value is given as “high polyreactivity”.

For “QVQLVESGGGLVQAGGSLRLSCAASGFTFIRNAMGWYRQAPGKERELVAAISWRGVRTYADSVKGRFTISRDNAKNTVYLQMHSQKPEDTAVYYCAARDAHYYPTMGYWGQGTQVTVSS”, the “polyreactivity (PSR sort gate)” value is on record as “high polyreactivity”.

On to “QVQLVVSGGGLVQEGGSLRLSCAASGGLFSLYAMGWYRQAPGKEREFVSAISFSGASTYYADSVKGRFTISRDNAKNTVSLQKNSLKPEDTSVYYCAAYWDAVGRRYTRLYYWGQGTQVTVSS”, for which the “polyreactivity (PSR sort gate)” value is given as “low polyreactivity”.

In the case of “QVQLVESGGGLVQAGGSLRLSCAASGFIFSKYARGCYRQAPGKEGELVAAITFSGGSTYYADSVKGRFTISRDNAKNTVYLQMHSLKPEDTAVYYCNAEGSYPDVSPVLGYDYWGQGTQVTVSS”, the “polyreactivity (PSR sort gate)” value is given as “low polyreactivity”.

As to “QVQLVESGGGLDQAGGSLRLSCAASGRIFVIIAMGWYRQAPGKERELVAAISWTGDTTYYADSVKGRFTISRDNAKNTVYLQMNSLKPEDTAVYYCAAEGYYIQSRTYSSDRYDYWGQGTQVTVSS”, the “polyreactivity (PSR sort gate)” value is listed as “low polyreactivity”.

As for “QVQLVESGGGLVQAGGSLRLSCAASGFILKYNAMGWYRQAPGKERELVAAISSNGGRTYYADSVKVRFTISRDNAKNTVYLQMKSLKPEDTAVDYCAAGRLQPVLGGYWGQGSQVTVSS”, the “polyreactivity (PSR sort gate)” value is “low polyreactivity”.

For the sequence “QVQLVESGGVLVQAGGSLRLSCAASGSIFDTYAMGWYRQAPGKERELVAAITWSGSSTYYADSVKGRFTISRDNAKNTVYLQMNSLKQEDTAVYYCAKDYYVEVTTEYDYWGQGTQVTVSS”, the “polyreactivity (PSR sort gate)” value is “high polyreactivity”.

“QVQLVESGGGLVQAGGSLRLSCAASGRIIWSYAMGWYRQAPGKERELVAAIRSGGTTDYADSVKGRFTISRDNAKNTVYLQMNSLKPEDTAVYYCAADPYSVYGGDYWGQGTQVTVSS”: the “polyreactivity (PSR sort gate)” value is “low polyreactivity”.

Consider “QVQLVESGGGLVQAGGSLRLSCAASGIIFQPYAMGWYRQAPGKERELVAAITYSGDGTFYADSVKGRFTISRDNAKNTVYLQMNSLKPEDTAVYYCAAYPRDPYKEYDYWGQGTQVTVSS”, for which the “polyreactivity (PSR sort gate)” value was “low polyreactivity”.

“QVQLVESGGGLVQAGGSLRLSCAASGRIFKYNAMGWYRQAPGKEREFVARITSGGRTYYADSVKGRFTISRDNAKNTVYLQMNSLKPEDTAVYYCNAEDVRYWVRGYRMGYWGQGTQVTVSS”: the “polyreactivity (PSR sort gate)” value is “high polyreactivity”.

As for “QVQLVESGGGLVQAGGILRLSCDASGFTFGYYTMGWYRQAHGKEREFVAAITGGSGSTYYADSVKGRFTISRDNAKNTVYLQMNSLKPEDTAVYYCAASIWRGLTPLLIGFDYWGQGTQVTVSS”, the “polyreactivity (PSR sort gate)” value is “high polyreactivity”.

For “QVQLVESGGGLVQAGGSLRLSCAASGFIFKRYAMGWYRQAPGKERELVAAITSSGGRTYYADSVKGRFTISRDNAKNTVYLQMISLKPEDTAVYYCAKGWSTYYTKMNYWGQGTQVTVSS”, the “polyreactivity (PSR sort gate)” value is “low polyreactivity”.

Consider “QVQLVESGGGLVQAGGSLRLSCAASGSTLRRYAMGWYRQAPGKERELVAAITRGSSTTYADSVKGRFTISRDNAKNTVYLQMNSLKPEDTAVYYCNTYFSRNFDYWGQGTQVTVSS”, for which the “polyreactivity (PSR sort gate)” value was “high polyreactivity”.

Take “QVHLVESVGRLVQEGGSLRLICAASAFNIYTYAMGWSRQAPGKEREMVAAISKSGGSTYSADSVKGRFTISRDNAKNTVYVQMNSLKPVDTAVYYCAVSDARHLGSGRYYWCQGTQVTVSS”: the “polyreactivity (PSR sort gate)” value is “low polyreactivity”.

For “QVQLVESGGGLVQAGASLRLSCASSGSISKSYAMGWYRQAPGKERELVAAISWRGGSTYADSVKGRFTISRDNAKNTVYLQMNSLKPVDTAVYYCAATNYGTFWVGQSERYDYWGQGTEVTVSS”, the “polyreactivity (PSR sort gate)” value was “low polyreactivity”.

Consider “QVQLVESGGGLVQAGGSLRLSCAASGRTFHYYAMGWYRQAPGKERELVAAITRGGNTYYADSVKGRFTISRDNAKNTVYLQMNSLKPEDTAVYYCAKDNHFEAYRYDYWGQGTQVTVSS”, for which the “polyreactivity (PSR sort gate)” value is listed as “low polyreactivity”.

As for “QVHLVESAGCLVQAAGSLRLSCSASGFTFGYNTMGWFRQPPGKERELVAAISYGGGRTYYADSVKWRFTISRDNAKNTVYLQMNSLKPEDSAVYYCAAAPIPSLTYDYWGQGTQVTVSS”, the “polyreactivity (PSR sort gate)” value was “low polyreactivity”.

For “QVQLEESGGGLVQAGGSLRLSCAASGRIFNENAMGWYRQAPGKERELVAAITQSGGSTYYADSVKGRFTISRDNAKNTVYLQMNSLKPEDTAVYYCAAGDAYYTEALPFGEYDYWGQGTQVTVSS”, the “polyreactivity (PSR sort gate)” value was “low polyreactivity”.

On to “QVQLVESGGGLVQAGGSLRLSCAASGFIFRKYVMGWYRQAPGKERELVAAITRSGTSTYYADSVKGRFTISRDNAKNTVYLQMNSLKPEDNAVYYCNVGSDGWYYWGQGTQVTVSS”, for which the “polyreactivity (PSR sort gate)” value is “low polyreactivity”.

In the case of “QVQLVESGGGLVQAGGSLRLSCAASGFIFRSYAMGWYRQAPGKERELVAAITSGGRTFYADSVKGRFTISRDNAKNTVYLQMNSLKPEDTAVYYCAAGGYRTGFNYWGQGTQVTVSS”, the “polyreactivity (PSR sort gate)” value is on record as “high polyreactivity”.

With “QDQLVESGGGFVQAGGSLRLSCAASGITFPLYALGRYRQPPGKERELVAAISRNGGRTYYADSVKVRFTMSRDNAKNTVYLQMNSMKPEDTAVYYCAKVSRGSVSSPPDDYWGQGTQVTVSS”, the “polyreactivity (PSR sort gate)” value is listed as “high polyreactivity”.

Source of the values: the nanobody polyreactivity screen of Harvey et al. (2022).
